Key:
Settings in all cases: remark: other sources report otherwise
[1] = target: SARS-CoV-2 RBD domain, Wuhan (SARS-CoV-2); test: RBD-ACE2 competition ELISA; parameters: unit not given beside the values
[2] = target: SARS-CoV-2 RBD domain, Wuhan (SARS-CoV-2); test: competition ELISA vs bio-Cv2.3235
[3] = target: SARS-CoV-2 RBD domain, Wuhan (SARS-CoV-2); test: competition ELISA vs bio-Cv2.5213
[4] = target: SARS-CoV-2 RBD domain, Wuhan (SARS-CoV-2); test: competition ELISA vs bio-Cv2.1169
[5] = target: T1, SARS-CoV-2 Spike (S) protein on cells (S-Flow assay) (SARS-CoV-2), P0DTC2; test: S-Flow flow cytometry, spike-expressing cells
[6] = target: SARS-CoV-2 RBD domain, Wuhan (SARS-CoV-2); test: competition ELISA vs bio-Cv2.3194
[7] = target: SARS-CoV-2 RBD domain, Wuhan (SARS-CoV-2); test: ELISA; parameters: unit not given beside the values
[8] = target: CoV-MERS Spike ectodomain (MERS-CoV), K9N5Q8; test: ELISA, coated antigen
[9] = target: SARS-CoV-2 RBD domain, Wuhan (SARS-CoV-2); test: ELISA, coated antigen
[10] = target: SARS-CoV-1 Spike ectodomain (SARS-CoV-1), P59594; test: ELISA, coated antigen; also: test concentration or dose not given here
[11] = target: SARS-CoV-2 RBD domain, Wuhan (SARS-CoV-2); test: competition ELISA vs bio-Cv2.1353
[12] = target: SARS-CoV-2 RBD domain, Wuhan (SARS-CoV-2); test: RBD-ACE2 competition ELISA; parameters: unit not given beside the values; remark: listed apart in the source
[13] = target: SARS-CoV-2 RBD domain, Wuhan (SARS-CoV-2); test: SPR (Biacore), antibody immobilised
[14] = target: T1, SARS-CoV-2 Spike (S) protein on cells …; test: flow cytometry, transfected cells
[15] = target: SARS-CoV-2 RBD domain, Wuhan (SARS-CoV-2); test: RBD/ACE2 blocking ELISA
[16] = target: SARS-CoV-2 RBD domain, Wuhan (SARS-CoV-2); test: ELISA; parameters: unit not given beside the values; remark: listed apart in the source
[17] = target: SARS-CoV-2 RBD domain, Wuhan (SARS-CoV-2); test: SPR (Biacore), antibody coupled to CM5 chip, viral protein as analyte
[18] = target: SARS-CoV-2 RBD domain, Wuhan (SARS-CoV-2); test: ELISA; parameters: unit not given beside the values; remark: listed apart in the source
[19] = target: SARS-CoV-2 RBD domain, Wuhan (SARS-CoV-2); test: ELISA
[20] = target: T1, SARS-CoV-2 Spike (S) protein on cells …; test: flow cytometry (Mock 2.5)
For % inhibition (competition) in this document: test concentration or dose not given here.

Binder | AUC (RBD block.) [1] | % inhibition (competition) [2] | % inhibition (competition) [3] | % inhibition (competition) [4] | S-Flow (%) [5] | S-Flow (MFI) [5] | % inhibition (competition) [6] | AUC (RBD bind.) [7] | ELISA OD [8] | ELISA OD [9] | ELISA OD [10] | % inhibition (competition) [11] | AUC (RBD block.) [12] | Kd [13] | log10 ΔgMFI [14] | other results
Cv2.5213 (recombinant human IgG1) (antibody) heavy: EVQLVESGGGLIQPGGSLRLSCAASGFTVSSNYMSWVRQAPGKGLEWVSLIYSGGSTYYADSVKGRFTISRDNSKNTLYLQMNSLRAEDTAVYYCARDLNYYGMDVWGQGATVTVSSASTKGPSVFPLAPSSKSTSGGTAALGCLVKDYFPEPVTVSWNSGALTSGVHTFPAVLQSSGLYSLSSVVTVPSSSLGTQTYICNVNHKPSNTKVDKKVEPKSCDKTHTCPPCPAPELLGGPSVFLFPPKPKDTLMISRTPEVTCVVVDVSHEDPEVKFNWYVDGVEVHNAKTKPREEQYNSTYRVVSVLTVLHQDWLNGKEYKCKVSNKALPAPIEKTISKAKQPREPQVYTLPPSRDELTKNQVSLTCLVKGFYPSDIAVEWESNGQPENNYKTTPPVLDSDGSFFLYSKLTVDKSRWQQGNVFSCSVMHEALHNHYTQKSLSLSPGK light: not shown | 283 | 80 | 77 | 43 | 95% | 270000 MFI | 61 | 13 | 0.1 OD | 3.5 OD | 0.1 OD | 67 | 141 | 162 nM | 4 | –
Cv2.3235 (recombinant human IgG1) (antibody) heavy: EVQLVESGGGLIQPGGSLRLSCAASGFTVSRNYMSWVRQAPGKGLEWVSVIYSGGSTFYADSVKGRFTISRDNSKNTLYLQMNSLRAEDTAVYYCARDGDYYGMDVWGQGTTVTVSSASTKGPSVFPLAPSSKSTSGGTAALGCLVKDYFPEPVTVSWNSGALTSGVHTFPAVLQSSGLYSLSSVVTVPSSSLGTQTYICNVNHKPSNTKVDKKVEPKSCDKTHTCPPCPAPELLGGPSVFLFPPKPKDTLMISRTPEVTCVVVDVSHEDPEVKFNWYVDGVEVHNAKTKPREEQYNSTYRVVSVLTVLHQDWLNGKEYKCKVSNKALPAPIEKTISKAKQPREPQVYTLPPSRDELTKNQVSLTCLVKGFYPSDIAVEWESNGQPENNYKTTPPVLDSDGSFFLYSKLTVDKSRWQQGNVFSCSVMHEALHNHYTQKSLSLSPGK light: DIQMTQSPSFLSASVGDRVTITCRASQGISSFLAWYQQKPGKAPKLLIYGASTLQSGVTSRFSGSGSGTEFTLTISSLQPEDFATYYCQRLDSYPPITFGQGTRLEIKRTVAAPSVFIFPPSDEQLKSGTASVVCLLNNFYPREAKVQWKVDNALQSGNSQESVTEQDSKDSTYSLSSTLTLSKADYEKHKVYACEVTHQGLSSPVTKSFNRGEC | 229 | 65 | 47 | 14 | 97% | 170000 MFI | 37 | 13 | 0.2 OD | 3.9 OD | 0.2 OD | 37 | 114 | 280 nM | 4 | –
COV2-2130 (antibody, V domains shown) VH: EVQLVESGGGLVKPGGSLRLSCAASGFTFRDVWMSWVRQAPGKGLEWVGRIKSKIDGGTTDYAAPVKGRFTISRDDSKNTLYLQMNSLKTEDTAVYYCTTAGSYYYDTVGPGLPEGKFDYWGQGTLVTVSS VL: not shown | – | – | – | – | – | – | – | – | – | – | – | – | – | – | – | % binding inhibition [15]: 96%; AUC [16]: 3
ADG-2 (antibody, V domains shown) VH: EVQLVESGGGLVKPGGSLRLSCAASGFTFSSYYMNWVRQAPGKGLEWVSSISEDGYSTYYPDSLKGRFTISRDSAKNSLYLQMNSLRADDTAVYYCARDFSGHTAWAGTGFEYWGQGTLVTVSS VL: QSVLTQPPSVSGAPGQRITISCTGSSSNIGAGYDVHWYQQLPGTAPKLLIYGSSSRNSGVPDRFSGSKSGTSASLAITGLQAEDEADYYCQSYDSSLSVLYTFGTGTKVTVL | – | – | – | – | – | – | – | – | – | – | – | – | – | – | – | % binding inhibition [15]: 94%; AUC [16]: 3
Cv2.1353 (recombinant human IgG1) (antibody) heavy: EVQLVESGGGLVQPGGSLRLSCAASGVTVSSNYMNWVRQAPGKGLEWVSVIYSGGSTFYADSVKGRFIISRDNSKNTLYLQMNSLKTEDTAVYYCARDLGPMGFDIWGQGTMVTVSSASTKGPSVFPLAPSSKSTSGGTAALGCLVKDYFPEPVTVSWNSGALTSGVHTFPAVLQSSGLYSLSSVVTVPSSSLGTQTYICNVNHKPSNTKVDKKVEPKSCDKTHTCPPCPAPELLGGPSVFLFPPKPKDTLMISRTPEVTCVVVDVSHEDPEVKFNWYVDGVEVHNAKTKPREEQYNSTYRVVSVLTVLHQDWLNGKEYKCKVSNKALPAPIEKTISKAKQPREPQVYTLPPSRDELTKNQVSLTCLVKGFYPSDIAVEWESNGQPENNYKTTPPVLDSDGSFFLYSKLTVDKSRWQQGNVFSCSVMHEALHNHYTQKSLSLSPGK light: DIQMTQSPSFLSASVGDRVTITCRASQGISSYLAWYQQKPGKAPKLLIYAASTLQSGVPSRFSGSGSGTEFTLTISSLQPEDFATYYCQQLNSDPPVTFGPGTKVDIKRTVAAPSVFIFPPSDEQLKSGTASVVCLLNNFYPREAKVQWKVDNALQSGNSQESVTEQDSKDSTYSLSSTLTLSKADYEKHKVYACEVTHQGLSSPVTKSFNRGEC | 315 | 80 | 78 | 62 | 95% | 270000 MFI | 74 | 12 | 0.1 OD | 3.5 OD | 0.1 OD | 74 | 158 | 2.24 nM | 4 | Kd [17]: < 0.001 nM; AUC (RBD bind.) [18]: 13
Cilgavimab (antibody, V domains shown) VH: EVQLVESGGGLVKPGGSLRLSCAASGFTFRDVWMSWVRQAPGKGLEWVGRIKSKIDGGTTDYAAPVKGRFTISRDDSKNTLYLQMNSLKTEDTAVYYCTTAGSYYYDTVGPGLPEGKFDYWGQGTLVTVSS VL: not shown | – | – | – | – | – | – | – | – | – | – | – | – | – | – | – | OD405nm [19]: 3.2
Adintrevimab (antibody, V domains shown) VH: EVQLVESGGGLVKPGGSLRLSCAASGFTFSSYYMNWVRQAPGKGLEWVSSISEDGYSTYYPDSLKGRFTISRDSAKNSLYLQMNSLRADDTAVYYCARDFSGHTAWAGTGFEYWGQGTLVTVSS VL: QSVLTQPPSVSGAPGQRITISCTGSSSNIGAGYDVHWYQQLPGTAPKLLIYGSSSRNSGVPDRFSGSKSGTSASLAITGLQAEDEADYYCQSYDSSLSVLYTFGTGTKVTVL | – | – | – | – | – | – | – | – | – | – | – | – | – | – | – | OD405nm [19]: 3.3; log10 ΔgMFI [20]: 4.4
